Results on six molecules are retold here after patent US20160355583A1 (Novartis, published 2016).

To fix the notation:
T1: human BMP9 (BMP9/Growth Differentiation Factor 2 [Homo sapiens], NP_057288) (human, UniProt Q9UK05 320-429, limits assumed)
T1 construct: cell assays use 'recombinant human BMP9 complex'; also called huBMP9; hBMP9
T1 sequence: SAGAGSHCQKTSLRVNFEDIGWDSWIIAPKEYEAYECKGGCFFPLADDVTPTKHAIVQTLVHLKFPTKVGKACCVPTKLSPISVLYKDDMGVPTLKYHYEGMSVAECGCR

T2: human BMP10 (Bone Morphogenetic Protein 10 Preproprotein [Homo sapiens], NP_055297) (human, UniProt O95393 317-424)
T2 construct: Bought recombinant protein; also called huBMP10; rhBMP10 (R&D Cat#2926-BP-025)
T2 sequence: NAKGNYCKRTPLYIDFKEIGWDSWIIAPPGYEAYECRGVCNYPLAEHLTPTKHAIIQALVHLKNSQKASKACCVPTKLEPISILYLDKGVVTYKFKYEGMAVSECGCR

T3: mouse BMP9 (mouse, UniProt Q9WV56 319-428, limits assumed)
T3 construct: also called murine BMP9; mouse BMP9 (iPROT101715)
T3 sequence (looked up): T1 sequence with A2T, G5S, E33D, V84I

T4: rat BMP9 (rat, UniProt M0RB87 320-430, The mature growth factor is a disulfide-linked homodimer. One copy of the polypeptide is given.)
T4 construct: also called rat BMP9 (R&D Systems 5566-BP); rat BMP9 condition medium
T4 sequence: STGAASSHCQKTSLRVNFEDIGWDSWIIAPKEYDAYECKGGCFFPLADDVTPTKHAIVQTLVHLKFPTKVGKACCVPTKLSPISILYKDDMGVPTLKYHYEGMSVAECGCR

T5: cyno BMP9 (cyno, UniProt G7PEU8 320-429)
T5 sequence: T1 sequence with A2T, D23N, V84I

T6: human BMP7 (human, UniProt P18075 293-431)
T6 construct: Bought recombinant protein; also called huBMP7; rhBMP7 (R&D Cat#354-BP-010)
T6 sequence (looked up): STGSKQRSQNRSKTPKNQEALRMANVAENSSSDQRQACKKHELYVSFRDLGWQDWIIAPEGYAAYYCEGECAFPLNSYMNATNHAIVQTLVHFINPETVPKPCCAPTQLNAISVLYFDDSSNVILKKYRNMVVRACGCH

B1: Antibody BMP9-2: MOR022962 (antibody, human IgG1, kappa, V domains shown)
VH: QVQLLESGGGLVQPGGSLRLSCAASGFTFSSYAMSWVRQAPGKGLEWVSITLGTGHTHYADSVKGRFTISRDNSKNTLYLQMNSLRAEDTAVYYCARGSYIIWSALDYWGQGTLVTVSS
VL: DIQMTQSPSSLSASVGDRVTITCRASQDIRSYLNWYQQKPGKAPKLLIYDASNLQSGVPSRFSGSGSGTDFTLTISSLQPEDFATYYCQQSDTSPLTFGQGTKVEIKR
B2: Antibody BMP9-7: MOR023787 (antibody, human IgG1, lambda, V domains shown)
VH: QVQLVESGGGLVKPGGSLRLSCAASGFTFSSAWMSWVRQAPGKGLEWVGHIKSKTYGGTIDYAAPVKGRFTISRDDSKNTLYLQMNSLKTEDTAVYYCARVGGYYGYGYAFAYWGQGTLVTVSS
VL: SYELTQPLSVSVALGQTARITCSGDNIGDKYVSWYQQKPGQAPVLVIYDDNKRPSGIPERFSGSNSGNTATLTISRAQAGDEADYYCSSTASKSFNVFGGGTKLTVLG
notes: Fully human, phage display
B3: Antibody BMP9-5: AM1900 (antibody, human IgG1, kappa, V domains shown)
VH: QVQLVQSGAEVKKPGASVKVSCKASGYTFTRYWMHWVRQAPGQGLEWMGEINPSQGGTNYNEKFKSRVTMTVDKSISTAYMELSRLRSDDTAVYYCAIGANYGGLVYWGQGTLVTVSS
VL: EIVLTQSPATLSLSPGERATLSCRASESLDNYGISFMNWFQQKPGQAPRFLIYAASNQGSGIPARFSGSGSGTDFTLTISSLQPEDTAVYFCQQSKEVPRTFGGGTKVEIKR
B4: Antibody BMP9-3: MOR023795 (antibody, human IgG1, lambda, V domains shown)
VH: EVQLVQSGAEVKKPGESLKISCKGSGYSFTTYWIGWVRQMPGKGLEWMGIIYPEGSYTTYSPSFQGQVTISADKSISTAYLQWSSLKASDTAMYYCARGKRVDASSFDYWGQGTLVTVSS
VL: QSVLTQPPSVSGAPGQRVTISCSGSSSNIGDNYVSWYQQLPGTAPKLLIYRNNKRPSGVPDRFSGSKSGTSASLAITGLQAEDEADYYCSSTDKEHLVFGGGTKLTVLG
notes: Fully human, phage display
B5: Antibody BMP9-9: MOR023796 (antibody, human IgG1, lambda, V domains shown)
VH: QVQLVQSGAEVKKPGSSVKVSCKASGGTFSDYAIHWVRQAPGQGLEWMGGIIPFFGTAYYAQKFQGRVTITADESTSTAYMELSSLRSEDTAVYYCARRIVSDSVAVQYRHAFDPWGQGTLVTVSS
VL: QSVLTQPPSVSGAPGQRVTISCSGSSSNIGSNYVYWYQQLPGTAPKLLIYGNNNRPSGVPDRFSGSKSGTSASLAITGLQAEDEADYYCNAWDTKAYVWVFGGGTKLTVLG
notes: Fully human, phage display
B6: Antibody BMP9-8: MOR023793 (antibody, human IgG1, kappa, V domains shown)
VH: QVQLVQSGAEVKKPGASVKVSCKASGYTFTSYYMNWVRQAPGQGLEWMGWINPVQGNTNYAQKFQGRVTMTRDTSISTAYMELSRLRSEDTAVYYCARNYFDVWGQGTLVTVSS
VL: DIQMTQSPSSLSASVGDRVTITCRASQTISNFLAWYQQKPGKAPKLLIYAASNLQSGVPSRFSGSGSGTDFTLTISSLQPEDFAVYYCQQLYAESITFGQGTKVEIKR
notes: Fully human, phage display

Where a chain is given by its changes, count along the chain named.

One assay concerns the target T1, human BMP9 (BMP9/Growth Differentiation …). Briefly: blocking ELISA; competitor Type I BMP receptor (AlkI). The procedure:
(§1) Blocking ELISA was used to identify positive clones that can inhibit the interactions between BMP9 and its receptors. Four different recombinant BMP9 receptors can be used: human Alk1-Fc (R&D system, 370-AL-100); human BMPRII-Fc (R&D system, 811-BR-100); human ActRIIA-Fc (R&D system, 340-R2-100); human ActRIIB-Fc (R&D system).
(§2) The blocking activity of antibody sample to specific ligand/receptor combination was measured by ELISA. In brief, 50 ul of receptor at a concentration of 1 ug/ml in coating buffer (PBS) was added into 96 well ELISA plates at 4° C. overnight, followed by washing with PBST one time. ELISA plates were blocked with 200 ul blocking buffer (PBST containing 1% BSA) in each well and then incubated at room temperature (RT) for 1 hour, followed by washing with PBST for 3 times. Diluted antibody sample was mixed with biotinylated human BMP9 (bio-hBMP9 of 1 ug/ml) and incubated at RT for 45 minutes. The mixture of antibody and bio-hBMP9 was added to the plates of 50 ul/well and then incubated at RT for 30 minutes, followed by washing with PBST for 3 times. 50 ul Poly-HRP Streptavidin (Thermofisher, 21140) was added to each well of the plates and incubated at RT for 30 minutes, followed by washing with PBST for 5 times. Finally, 50 ul of TMB reagent (Invitrogen 002023) and 50 ul of 1N HCl (Invitrogen SS01100) were added to each well to stop the reaction. Absorbance of each well was read at 450 nm to get readout OD₄₅₀.
In general terms: An ELISA detects its analyte on a solid surface through an enzyme-linked reagent.
As usually defined, the IC50 is the concentration at which inhibition is half-maximal. For B1, the IC50 is at most 1 nM.

Take B2: the 50% inhibitory concentration (IC50) is at most 1 nM.

A further assay deals with T2, human BMP10 (Bone Morphogenetic Protein …). Kind of assay: Table 5 (caption: MSD-SET; Example 6 describes Biacore SPR on immobilised rhBMP10, Fab 31.25-1000 nM). A general note: In SPR one partner is held on a chip, and binding of the other changes the refractive index at the surface.
Turning to B3, the binding result is “no binding”.

A further assay addresses T3, mouse BMP9. Briefly: MSD-SET solution equilibrium titration. The protocol:
(§3) The amount of free Fab binding sites was determined by transferring the mixtures on antigen-coated plates and a brief incubation. The free Fab was consequently bound to the plate and detected with a detection antibody after a washing step for removing Fab-antigen complexes. The resulting signal was plotted versus the antigen concentration; and the KD was accurately determined by non-linear curve fitting.
(§4) A 22 serial 2ⁿ dilution of the antigens (human BMP9 (GD-43-KS00); cyno BMP9, rat BMP9 (R&D Systems 5566-BP) or mouse BMP9 (iPROT101715)) was prepared in incubation buffer (PBS (Teknova Cat#P0195) containing 0.5% BSA (Sigma Cat#A7906-500G) and 0.02% Tween-20 (VWR Cat#437082Q)). A constant concentration of the Fab was added. A volume of 60 ul of each antigen:Fab mix was distributed in duplicates to a 384-well polypropylene microtiter plate (PP MTP, Greiner Cat#781280). Incubation buffer served as negative control and a sample containing no antigen served as positive control (Bₘₐₓ). The plate was sealed and incubated overnight (O/N) at room temperature (RT).
(§5) A 384-well standard MSD array plate (Meso Scale Discovery Cat#L21XA) was coated with 30 ul/well human BMP9 diluted in PBS as capture agent and incubated O/N at 4° C. After washing for 3 times with 70 ul/well washing buffer (TBS (Teknova Cat#T1680) with 0.05% Tween-20), the plate was blocked with 50 ul/well blocking buffer (PBS with 5% BSA) for 1 hour at RT. After washing, a volume of 30 ul/well of the antigen:Fab mix was transferred from the PP MTP to the coated MSD plate and incubated for 20 min at RT. After an additional wash step, 30 ul of detection antibody (Goat anti-human Fab specific (Jackson Immuno Research Cat#109-005-097) conjugated with MSD SULFO-TAG NHS Ester (Meso Scale Discovery Cat#R91AN-1)) diluted 1:1000 in incubation buffer was added to each well and incubated for 30 min at RT. The MSD plate was washed and 35 ul/well of read buffer (MSD Read Buffer T 4×, Meso Scale Discovery Cat#R92TC-1) was added and then incubated for 5 min at RT. ECL signals were measured with the MSD SECTOR Imager 6000. The data was evaluated with XLfit (IDBS) software following a 1:1 fit model for Fab (according to Piehler et al., 1997).
The Kd is the constant that tells how readily two partners part at equilibrium. A low value points to higher affinity. Molecule B4 had an equilibrium dissociation constant (Kd) of 0.059 nM.

Molecule B5 registered a Kd of 0.42 nM.

Molecule B1 came in with a Kd of 0.005 nM.

On to B2, for which the Kd was found to be 0.74 nM. This Kd lies about 150-fold higher than the previous one.

Molecule B6 had a Kd of 0.44 nM.

Another assay concerns the target T1, human BMP9 (BMP9/Growth Differentiation …). Kind of assay: MSD-SET solution equilibrium titration. The procedure:
as §3, §4, §5
With B4, the dissociation constant Kd turned out to be 0.288 nM.

In the case of B5, the dissociation constant (Kd) was 0.44 nM. This Kd lies about 1.5-fold higher than the previous one.

Molecule B1 came in with a dissociation constant Kd of 0.012 nM.

B3 had a Kd of 0.054 nM. Against the preceding molecule, the Kd is about 4.5-fold higher.

With B2, the dissociation constant (Kd) stood at 0.2 nM. Compared with the last molecule, the Kd is about 3.7-fold higher.

With B6, the affinity, expressed as Kd, was 0.12 nM.

In another assay the target is T4, rat BMP9. Kind of assay: MSD-SET solution equilibrium titration. The protocol: as §3, §4, §5
Molecule B4 registered a Kd of 0.069 nM. This lies in the picomolar range.

Regarding B1, the dissociation constant (Kd) was determined as 0.006 nM.

In turn, B3 had a dissociation constant Kd of 0.046 nM.

For a further assay, the target named is T5, cyno BMP9. Briefly: MSD-SET solution equilibrium titration. The procedure: as §3, §4, §5
On to B4, for which the Kd is 0.262 nM. That is a sub-nanomolar value.

B5 returned an equilibrium dissociation constant (Kd) of 0.13 nM.

B1 registered an equilibrium dissociation constant (Kd) of 0.018 nM. Against the preceding molecule, the Kd is about 7.2-fold lower.

Take B2: the dissociation constant Kd stood at 0.35 nM.

With B6, the dissociation constant Kd came to 0.24 nM.

The next assay addresses T1, human BMP9 (BMP9/Growth Differentiation …). Briefly: cell-based or functional assay.
As to B4, the “RGA IC50 [pM] (HEK293T BRE-Luc reporter gene assay)” value (“RGA IC50 [pM]” below) came to 167 pM.

As to B5, the “RGA IC50 [pM]” value stood at 130 pM.

Take B1: the “RGA IC50 [pM]” value is 138 pM.

For B2, the “RGA IC50 [pM]” value is 118 pM.

In the case of B6, the “RGA IC50 [pM]” value turned out to be 113 pM.

For another assay the target is unchanged. Briefly: blocking ELISA; competitor Type II BMP receptor (ActRIIB, BMPRII). The protocol: as §1, §2
B4: the IC50 was at most 1 nM.

With B5, the IC50 is at most 1 nM.

For B3, the IC50 was at most 1 nM.

Consider B6, for which the IC50 was at most 1 nM.

In the next assay the target is T7, human BMP2 (human, UniProt P12643 283-396).
T7 construct: Bought recombinant protein; also called huBMP2; rhBMP2 (R&D Cat#355-BM-010)
T7 sequence (P12643 283-396 limits assumed): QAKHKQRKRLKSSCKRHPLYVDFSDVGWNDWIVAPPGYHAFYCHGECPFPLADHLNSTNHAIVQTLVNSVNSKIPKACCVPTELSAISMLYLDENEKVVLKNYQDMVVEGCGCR
Briefly: table caption: MSD-SET; Example 6 describes Biacore SPR for BMP2, BMP7, BMP10.
B3 showed a Kd of 999 nM.

Another assay concerns the target T6, human BMP7. Described as above.
In turn, B3 yielded a Kd of 108 nM.

The target of a further assay is T1, human BMP9 (BMP9/Growth Differentiation …). Briefly: cell-based or functional assay. This is another data set of the same source.
B3: the “RGA IC50 [pM]” value was found to be 100 pM.

In a further assay the target is T2, human BMP10 (Bone Morphogenetic Protein …). Kind of assay: Table 7 (caption: MSD-SET; Example 6 describes Biacore SPR on immobilised rhBMP10, Fab 31.25-1000 nM).
For B4, the binding result is given as “no binding”.

As to B5, the binding result is “no binding”.

Turning to B1, the binding result was “no binding”.

Regarding B2, the binding result is reported as “no binding”.

In the case of B6, the binding result is “no binding”.
